Experimental data as given in patent US11453711B2, “Fusion proteins of GLP-1 and GDF15 and conjugates thereof” (BEIJING QL BIOPHARMACEUTICAL CO., LTD., priority 2019, dated 2022).

Assays:
[1] = Body weight and food intake in C57BL/6 mice, unconjugated fusion proteins, 30 nmol/kg daily 10 days; format: in vivo
Method: 10 week old male C57BL/6 mice were injected everyday subcutaneously with 15 nmol/kg of the fusion protein conjugates (i.e., MLC002, MLC 004, MLC 005, MLC 006, MLC 007, MLC 008, and MLC 009) for 14 days. Food intake and body weight were measured daily and five animals were used for each treatment group. Body weight (BW) was monitored for each individual animal, but food intake for each group animals was measured together. Day 1 and Day 14 are first day and last day of molecule dosage. % BW loss=100*(BW on Day n-BW on Day 1)/(BW on Day 1). Cumulative food intake on Day n represents sum of food intake from Day 1 to Day n. Data are indicated as mean values and standard error (SEM) or pooled values. Statistical analysis was performed by One-way ANOVA. Body weight reduction on Day 11 is calculated by −1*(% BW loss−% BW loss of vehicle group); Cumulative food intake reduction is calculated by −100*(cumulative food intake-cumulative food intake of vehicle)/cumulative food intake of vehicle.
As described in the above method, a daily dose of 30 nmol/kg of the unconjugated fusion proteins (i.e., MLC100, MLC023, MLC022, MLC020, MLC003, MLC124, MLC021, MLC019, MLC102) were administered to C57BL/6 for 10 days. Data were calculated as above method. Day 1 and Day 10 are first day and last day of administration.

[2] = Additive or synergistic effect: body weight and food intake in C57BL/6 mice, 30 nmol/kg daily sc 10 days; format: in vivo; settings: versus negative controls MLC096 and MLC097
Method: FIGS. 7A-7B show In vivo efficacy in C57 lean mice. To evaluate the body weight and food intake effects of the fusion proteins, 10 week old male C57BL/6J mice were dosed everyday subcutaneously with 30 nmol/kg protein for 10 days. Food intake and body weight were measured daily. […] Data are expressed as mean values and standard error (SEM) for FIG. 7A. n=5 for each treatment group. For FIG. 7B, a pooled food intake was measured for each treatment group.
10 week old male C57BL/6 mice were injected everyday subcutaneously with 30 nmol/kg of the unconjugated fusion proteins (i.e., MLC096, MLC097 and MLCO21) for 10 days. Food intake and body weight were measured daily and five animals were used for each treatment group. Body weight (BW) was monitored for each individual animal, but food intake for each group animals was measured together. Day 1 and Day 10 are first day and last day of molecule dosage. % BW loss=100*(BW on Day n-BW on Day 1)/(BW on Day 1). Cumulative food intake on Day n represents sum of food intake from Day 1 to Day n. Data are indicated as mean values and standard error (SEM) or pooled values. Statistical analysis was performed by One-way ANOVA.
As discussed above, MLC096 and MLC097 were used as negative controls, as they contained known inactivating mutation in GDF15 or GLP-1.

[3] = mouse, in vivo, sc, 30 nmol/kg
Method: (§2) Each fusion protein was injected subcutaneously into C57BL/6 mice (n=3/group) once and plasma samples were collected at designed time points and analyzed by ELISA method. Plasma concentrations are indicated as mean values and standard error (SEM).
(§3) 6-8 week old male C57BL/6 mice were administrated in a single subcutaneous dose of 30 nmol/kg of the fusion protein conjugates or unconjugated fusion proteins (i.e., MLC002, MLC004, MLC005, MLC006, MLC007, MLC008, MLC009, MLC013, MLC017, MLC047, MLC074, MLC075, MLC089, MLC093, MLC003 and MLC019) (n=3/group). Plasma samples were collected pre-dose (−5 min), 0.5 hr, 1 hr, 2 hr, 4 hr, 6 hr, 8 hr, 12 hr, 24 hr, 48 hr and 72 hr after the injection. The concentrations of the fusion protein conjugates in the plasma were measured by an ELISA assay which has immunoreactivity towards both GDF15 and intact N-terminal of GLP-1. Based on the graph showing plasma concentration of each protein versus time after subcutaneous injection, the pharmacokinetic parameters (including Tmax, Cmax, T1/2, AUC) were calculated by WinNonlin software.

[4] = Body weight and food intake in C57BL/6 mice, fusion protein conjugates, 30 nmol/kg daily 10 days; format: in vivo
In short: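 Male C57BL/6 mice received fusion protein conjugates by daily subcutaneous injection, with dosing running from Day 1 to Day 10. Body weight was recorded daily per animal and food intake daily per group. Body weight reduction was expressed relative to vehicle percent loss from Day 1. Cumulative food intake reduction was expressed as percent decrease versus vehicle.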

[5] = PK study in non-human primates, single sc dose 5 nmol/kg, plasma ELISA; settings: monkey, single sc dose 5 nmol/kg
[6] = Efficacy in db/db mice: body weight, food intake, glucose, biomarkers, daily sc 14 days; format: in vivo
Method: (§1) FIGS. 4A-4D show In vivo efficacy in db/db mice. To evaluate the body weight, food intake and glucose effects of the fusion proteins, 8 week old male db/db mice were dosed everyday subcutaneously with 30 nmol/kg protein for 14 days. […] Compared to Vehicle control: ***, p<0.001. Data are expressed as mean values and standard error (SEM) for FIGS. 4A, 4B and 4D. n=5 for each treatment group. For FIG. 4C, a pooled food intake was measured for each treatment group.
FIGS. 5A-5F show In vivo efficacy in db/db mice. To evaluate the body weight, food intake and glucose effects of the fusion proteins, 8 week old male db/db mice were dosed everyday subcutaneously with different concentrations of proteins for 14 days. FIGS. 5A and 5B show body weight loss upon protein treatments from Day1 to Day15. […] Compared to Vehicle control: ***, p<0.001; **, p<0.01; *, p<0.05; ns, non-statistically significant; FIGS. 5D and 5E show cumulative food intake with protein treatments from Day1 to Day15. […] Compared to Vehicle control: ***, p<0.001**, p<0.01; *, p<0.05; ns, non-statistically significant. Data are expressed as mean values and standard error (SEM) for FIGS. 5A, 5B, 5C and 5F. n=5 for each treatment group. For FIGS. 5D and 5E, a pooled food intake was measured for each treatment group.
as §1, with “8A-8I” for “4A-4D”, “different concentrations of proteins” for “30 nmol/kg protein”, “FIGS. 8D-8F show body weight loss upon dose titrations of fusion protein conjugates. […]” for “Compared to Vehicle control: ***, p<0.001.”, “8A” for “4A, 4B”, “8C-I.” for “4D.”, “8B,” for “4C,”
Selected fusion protein conjugates are assessed in disease animal models (DIO mice, db/db mice, etc.) to determine body weight, food intake, glucose efficacy with dose responses. Some biomarkers are also measured, including fasting insulin, plasma triglyceride, cholesterol, liver triglyceride, and inflammatory biomarkers (ALT, AST and CRP).
8 week old male db/db mice were injected everyday subcutaneously with designated proteins for 14 days. Age matched lean mice were used as control. Food intake and body weight were measured daily and five animals were used for each treatment group. Fasting glucose were tested on designated days as shown in each figure. Body weight was monitored for each individual animal, but food intake for each group animals was measured together. Day 1 and Day 14 are first day and last day of molecule dosage. % BW loss=100*(BW on Day n-BW on Day 1)/(BW on Day 1). Cumulative food intake on Day n represents sum of food intake from Day 1 to Day n. Terminal blood was collected and EDTA-2K plasma was prepared and frozen at −80° C. for biomarker measurement. Liver was also collected and frozen in liquid nitrogen and store at −80° C. Data are indicated as mean values and standard error (SEM) or pooled values. Statistical analysis was performed by One-way ANOVA.

[7] = cynomolgus monkey, in vivo, sc, 5 nmol/kg
[8] = Pharmacokinetic measurement in mouse, single sc dose 30 nmol/kg, plasma ELISA; settings: single sc dose 30 nmol/kg
Method: as §2, §3

[9] = C57 mice, 30 nmol/kg daily, Day11, unconjugated fusion proteins
[10] = 30 nmol/kg, FIG. 5A-E, versus Semaglutide, Tirzepatide and MLC014

B1: MLC021: unconjugated GLP-1/GDF15 fusion protein, linker of at least 80 residues (protein)
chain: HGEGTFTSDVSSYLEEQAAKEFIAWLVRGGGGQEPGAQPGQEPGAQPGQEPGAQPGQEPGAQPGQEPGAQPGQEPGAQPGAQPGAQPGAQPGAQPGAQPGAQPGAQPGAQPARQGDHCPLGPGRCCRLHTVRASLEDLGWADWVLSPREVQVTMCIGACPSQFRAANLHAQIKTSLHRLKPDTVPAPCCVPASYNPMVLIQKTDTGVSLQTYDDLLAKDCHCI
In the case of B1, the “Body weight reduction at 30 nmol/kg (% reduction compared to vehicle)(Day11)” value [1, 9] is reported as 22.1%, the “Cumulative food intake reduction at 30 nmol/kg (% reduction compared to vehicle)(Day11)” value [1, 9] is reported as 48.7% and the “in vivo efficacy (food intake and body weight reduction)” value ([1]; unconjugated fusion proteins, 30 nmol/kg daily 10 days, by linker length) is reported as “the most significant results among all the tested fusion proteins”. For the same molecule, the “body weight reduction efficacy” value [2] was “much better body weight reduction efficacy” and the food intake [2] was “decreased food intake”.

B2: MLC047: fusion polypeptide SEQ ID NO: 330 conjugated with Moiety A at 40K of linker (conjugate)
chain: HGEGTFTSDVSSYLEEQAAREFIAWLVRGGGGQEPGAQPGQEPGAQPGQEPGAQPGQEPGAQPGQEPGAQKGQEPGAQPGAQPGAQPGAQPGAQPGAQPGAQPGAQPGAQPARQGDHCPLGPGRCCRLHTVRASLEDLGWADWVLSPREVQVTMCIGACPSQFRAANLHAQIKTSLHRLRPDTVPAPCCVPASYNPMVLIQRTDTGVSLQTYDDLLARDCHCI
With B2 the “AUC0-24 h” value [3] was 1.2468 µM·h, the Cmax [3] was 71.9 nM and the “Terminal t1/2” value [3] was 9.3 h. The “Body weight reduction at 30 nmol/kg (% reduction compared to vehicle)(Day11)” value [4] was 24.7%, the “Cumulative food intake reduction at 30 nmol/kg (% reduction compared to vehicle)(Day11)” value [4] was 51.2% and the “Tmax” value [5] was 16 h. The body weight loss [6, 10] was “sustainable and much better effect”, the food intake suppression [6, 10] was “sustainable and much better effect” and the efficacy ([6]; FIG. 5 study) was “better efficacy than Semaglutide and GDF15 derivative (MLC014)”. For the same molecule, the “AUC0-96 h” value [7] was 1.541 µM·h and the “Tmax” value [8] was 10.7 h.
